Data on 2 molecules can be found in PMC12290104, “PEAK1 maintains tight junctions in intestinal epithelial cells and resists colitis by inhibiting autophagy-mediated ZO-1 degradation” (Nature Communications, 2025).

One experiment addresses ZO-1 (UniProt Q07157). Put plainly: co-IP of FC-PEAK1, ZO-1 blot. The conditions noted are these: reference: FC-PEAK1 wild type; sites Y724.
The target in another experiment is T1, GFP-tagged ZO-1 (human, UniProt Q07157 1-1748).
T1 construct: ZO-1, human cDNA cloned into pTriEx-GFP; last truncation ends at 1748; also called GFP-ZO-1; GFP-tagged ZO-1 (WT); source: HEK293T, transfected, in lysate; also purified from HEK293T (anti-GFP magnetic beads, glycine pH 2.5 elution)
Put plainly: pull-down; 10 μg FC-tagged PEAK1^WT or PEAK1^Y724F purified from HEK293T held on Protein A Sepharose (blocked with 10% FBS); GFP-tagged ZO-1 at 0, 1, 2 and 4 μg, 4 h, 4 °C; immunoblot. To be noted: both partners purified. For orientation: A western blot detects proteins with antibodies after separation by electrophoresis.

T1 sequence (Q07157 whole entry, the tested form may be a part): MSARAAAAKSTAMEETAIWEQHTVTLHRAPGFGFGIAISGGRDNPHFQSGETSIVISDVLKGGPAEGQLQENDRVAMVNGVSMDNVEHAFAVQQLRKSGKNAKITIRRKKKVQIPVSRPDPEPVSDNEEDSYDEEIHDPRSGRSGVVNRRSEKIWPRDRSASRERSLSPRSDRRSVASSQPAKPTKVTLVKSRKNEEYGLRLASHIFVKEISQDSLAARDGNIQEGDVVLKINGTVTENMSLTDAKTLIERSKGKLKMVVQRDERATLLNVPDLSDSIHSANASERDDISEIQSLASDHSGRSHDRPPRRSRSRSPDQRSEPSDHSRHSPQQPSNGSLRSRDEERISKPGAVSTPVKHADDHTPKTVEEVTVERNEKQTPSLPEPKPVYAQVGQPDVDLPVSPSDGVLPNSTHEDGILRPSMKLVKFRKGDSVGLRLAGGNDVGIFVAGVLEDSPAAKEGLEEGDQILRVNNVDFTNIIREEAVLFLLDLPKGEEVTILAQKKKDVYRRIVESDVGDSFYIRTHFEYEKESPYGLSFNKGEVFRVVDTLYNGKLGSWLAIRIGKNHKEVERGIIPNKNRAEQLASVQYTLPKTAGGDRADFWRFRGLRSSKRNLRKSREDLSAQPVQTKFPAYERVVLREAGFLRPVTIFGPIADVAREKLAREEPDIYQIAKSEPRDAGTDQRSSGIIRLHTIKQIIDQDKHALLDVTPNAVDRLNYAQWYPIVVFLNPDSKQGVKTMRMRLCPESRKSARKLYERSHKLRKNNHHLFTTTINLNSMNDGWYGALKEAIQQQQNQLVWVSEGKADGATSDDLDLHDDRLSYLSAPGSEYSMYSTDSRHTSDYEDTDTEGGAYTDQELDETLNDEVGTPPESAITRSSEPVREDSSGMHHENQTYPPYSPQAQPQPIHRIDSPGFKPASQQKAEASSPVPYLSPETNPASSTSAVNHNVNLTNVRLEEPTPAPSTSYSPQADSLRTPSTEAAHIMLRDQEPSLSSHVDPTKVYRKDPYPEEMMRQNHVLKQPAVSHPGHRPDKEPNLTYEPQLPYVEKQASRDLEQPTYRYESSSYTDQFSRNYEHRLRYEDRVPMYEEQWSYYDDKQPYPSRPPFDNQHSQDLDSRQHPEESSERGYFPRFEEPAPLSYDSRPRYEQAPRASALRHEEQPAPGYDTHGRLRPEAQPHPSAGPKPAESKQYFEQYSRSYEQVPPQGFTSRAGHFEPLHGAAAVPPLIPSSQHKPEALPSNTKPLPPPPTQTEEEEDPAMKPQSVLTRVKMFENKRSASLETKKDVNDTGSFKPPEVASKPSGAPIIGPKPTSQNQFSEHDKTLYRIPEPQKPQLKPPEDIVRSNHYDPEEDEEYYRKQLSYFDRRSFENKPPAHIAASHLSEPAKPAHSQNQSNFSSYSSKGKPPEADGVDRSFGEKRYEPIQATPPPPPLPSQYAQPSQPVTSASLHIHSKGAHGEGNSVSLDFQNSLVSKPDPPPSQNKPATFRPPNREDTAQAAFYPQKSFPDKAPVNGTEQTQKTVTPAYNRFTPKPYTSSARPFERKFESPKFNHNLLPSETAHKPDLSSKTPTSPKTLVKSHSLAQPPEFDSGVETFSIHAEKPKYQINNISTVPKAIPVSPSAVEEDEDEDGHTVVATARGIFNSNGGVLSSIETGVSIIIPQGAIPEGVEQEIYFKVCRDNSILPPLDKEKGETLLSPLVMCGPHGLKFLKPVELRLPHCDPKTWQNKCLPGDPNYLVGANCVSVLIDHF

Turning to “PEAK1 (from UniProt Q9H792) FC-PEAK1 Y724F”, the “binding against the reference” value with ZO-1 was “weaker”.

B1: FC-tagged PEAK1^WT (Fc fusion, human, UniProt Q9H792 1-1746, looked up)
chain: MSACNTFTEHVWKPGECKNCFKPKSLHQLPPDPEKAPITHGNVKTNANHSNNHRIRNTGNFRPPVAKKPTIAVKPTMIVADGQSICGELSIQEHCENKPVIIGWNRNRAALSQKPLNNNNEDDEGISHVPKPYGNNDSAKKMSDNNNGLTEVLKEIAGLDTAPQIRGNETNSRETFLGRINDCYKRSLERKLPPSCMIGGIKETQGKHVILSGSTEVISNEGGRFCYPEFSSGEESEEDVLFSNMEEEHESWDESDEELLAMEIRMRGQPRFANFRANTLSPVRFFVDKKWNTIPLRNKSLQRICAVDYDDSYDEILNGYEENSVVSYGQGSIQSMVSSDSTSPDSSLTEESRSETASSLSQKICNGGLSPGNPGDSKDMKEIEPNYESPSSNNQDKDSSQASKSSIKVPETHKAVLALRLEEKDGKIAVQTEKEESKASTDVAGQAVTINLVPTEEQAKPYRVVNLEQPLCKPYTVVDVSAAMASEHLEGPVNSPKTKSSSSTPNSPVTSSSLTPGQISAHFQKSSAIRYQEVWTSSTSPRQKIPKVELITSGTGPNVPPRKNCHKSAPTSPTATNISSKTIPVKSPNLSEIKFNSYNNAGMPPFPIIIHDEPTYARSSKNAIKVPIVINPNAYDNLAIYKSFLGTSGELSVKEKTTSVISHTYEEIETESKVPDNTTSKTTDCLQTKGFSNSTEHKRGSVAQKVQEFNNCLNRGQSSPQRSYSSSHSSPAKIQRATQEPVAKIEGTQESQMVGSSSTREKASTVLSQIVASIQPPQSPPETPQSGPKACSVEELYAIPPDADVAKSTPKSTPVRPKSLFTSQPSGEAEAPQTTDSPTTKVQKDPSIKPVTPSPSKLVTSPQSEPPAPFPPPRSTSSPYHAGNLLQRHFTNWTKPTSPTRSTEAESVLHSEGSRRAADAKPKRWISFKSFFRRRKTDEEDDKEKEREKGKLVGLDGTVIHMLPPPPVQRHHWFTEAKGESSEKPAIVFMYRCDPAQGQLSVDQSKARTDQAAVMEKGRAENALLQDSEKKRSHSSPSQIPKKILSHMTHEVTEDFSPRDPRTVVGKQDGRGCTSVTTALSLPELEREDGKEDISDPMDPNPCSATYSNLGQSRAAMIPPKQPRQPKGAVDDAIAFGGKTDQEAPNASQPTPPPLPKKMIIRANTEPISKDLQKSMESSLCVMANPTYDIDPNWDASSAGSSISYELKGLDIESYDSLERPLRKERPVPSAANSISSLTTLSIKDRFSNSMESLSSRRGPSCRQGRGIQKPQRQALYRGLENREEVVGKIRSLHTDALKKLAVKCEDLFMAGQKDQLRFGVDSWSDFRLTSDKPCCEAGDAVYYTASYAKDPLNNYAVKICKSKAKESQQYYHSLAVRQSLAVHFNIQQDCGHFLAEVPNRLLPWEDPDDPEKDEDDMEETEEDAKGETDGKNPKPCSEAASSQKENQGVMSKKQRSHVVVITREVPCLTVADFVRDSLAQHGKSPDLYERQVCLLLLQLCSGLEHLKPYHVTHCDLRLENLLLVHYQPGGTAQGFGPAEPSPTSSYPTRLIVSNFSQAKQKSHLVDPEILRDQSRLAPEIITATQYKKCDEFQTGILIYEMLHLPNPFDENPELKEREYTRADLPRIPFRSPYSRGLQQLASCLLNPNPSERILISDAKGILQCLLWGPREDLFQTFTACPSLVQRNTLLQNWLDIKRTLLMIKFAEKSLDREGGISLEDWLCAQYLAFATTDSLSCIVKILQHR
notes: PEAK1, human cDNA cloned into pTriEx-FC; also called FC-PEAK1; FC-PEAK1^WT; source: HEK293T, transfected, in lysate; also purified from HEK293T (protein A sepharose, glycine pH 2.5 elution)
Consider B1, for which, in the experiment with GFP-tagged ZO-1, the binding result is “binds”.
